Assay results: US20240368279A1 (SHANGHAI SINOBAY BIOTECHNOLOGY, published 2024)

Target: human CD47 protein (antigen of the SPR affinity determination) (human, UniProt Q08722 19-139, limits assumed)
Assay: affinity for a human CD47 protein (method not given; SPR in Example 3)

B1: Hu004-65 antibody (full-length human IgG1, kappa) (antibody, V domains shown)
VH: EVQLVESGGGLVQPGGSLRLSCAASGFTFSGYGMSWVRQAPGKGLEWVATITSGGTYTYYPDSVKGRFTISRDNAKNSLYLQMNSLRAEDTAVYYCARSLAGNAMDYWGQGTLVTVSS
VL: DIQMTQSPSSLSASVGDRVTITCRASQSITKSLNWYQQKPGKAPRLLIRVASTLQSGVPSRFSGSGSGTDFTLTISSLQPEDFATYYCQHSYSFGQGTKLEIT
notes: also called candidate antibody Hu004-65; monoclonal antibody Hu004-65
Kd: 146 nM

B2: Hu004-101 antibody (full-length human IgG1, kappa) (antibody, V domains shown)
VH: EVQLVESGGGLVQPGGSLRLSCAASGFTFSGYGMSWVRQAPGKGLEWVATITSGGTYTYYPDSVKGRFTISRDNAKNSLYLQMNSLRAEDTAVYYCARSLAGNAMDYWGQGTLVTVSS
VL: DIQMTQSPSTLSASVGDRVTITCRASQSISNWLAWYQQKPGEAPKLLIYKASNLESGVPSRFSGSGSGTEFTLTISSLQPDDFATYYCQQFGTFGQGTKVEIK
Kd: 320 nM
